From the supplement of paper PMC12667976
± gives the standard error.

B1: library; numbered along this chain (parent)
chain: MATDAALRRLLRLHRTEIAVAVDSAFPLLHALADHDVVPEDKFQETLHLKEKEGCPQAFHALLSWLLTQDSTAILDFWRVLFKDYNLERYGRLQPILDSFPKDVDLSQPRKGRKPPAVPKALVPPPRLPTKRKASEEARAAAPAALTPRGTASPGSQLKAKPPKKPESSAEQQRLPLGNGIQTMSASVQRAVAMSSGDVPGARGAVEGILIQQVFESGGSKKCIQVGGEFYTPSKFEDSGSGKNKARSSSGPKPLVRAKGAQGAAPGGGEARLGQQGSVPAPLALPSDPQLHQKNEDECAVCRDGGELICCDGCPRAFHLACLSPPLREIPSGTWRCSSCLQATVQEVQPRAEEPRPQEPPVETPLPPGLRSAGEEVRGPPGEPLAGMDTTLVYKHLPAPPSAAPLPGLDSSALHPLLCVGPEGQQNLAPGARCGVCGDGTDVLRCTHCAAAFHWRCHFPAGTSRPGTGLRCRSCSGDVTPAPVEGVLAPSPARLAPGPAKDDTASHEPALHRDDLESLLSEHTFDGILQWAIQSMARPAAPFPS

Variants of: B1
Assay: AIRE transcriptional activation functional score (insulin promoter-GFP; nonsense median 0, synonymous median 1) (normalised score); higher = higher AIRE activity (more reporter activation)
Settings: with insulin promoter-GFP reporter in HEK293
Description: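 Deep mutational scan of full-length human AIRE (codon-optimized cDNA, DT-POPCode NNN libraries over three regions) integrated at a Bxb1 landing pad in HEK293 cells carrying an insulin core promoter-GFP reporter at a Flp-In site. Cells were sorted for the top 10% GFP about 14 days after transfection. Variant frequency log-ratios (select vs non-select, TileSeq) were rescaled so that the nonsense median is 0 and the synonymous median is 1, then averaged over biological replicates.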

AIRE transcriptional activation functional score of substitutions, site by site:
L28: S -0.39 ± 0.52; K 0.863 ± 0.19; T 0.6 ± 0.27; A -0.115 ± 0.52; C -0.067 ± 0.3; E -1.34 ± 0.96; F -0.285 ± 0.14; W -2.53 ± 0.92; R 0.297 ± 0.54; V 0.05 ± 0.33; G 0.239 ± 0.38; Y -0.212 ± 0.28; P 0.00884 ± 0.33; D -0.558 ± 0.17; I 0.53 ± 0.16; N -1.05 ± 0.21; M 0.175 ± 0.25; Q 0.552 ± 0.6; H -2.61 ± 0.94
A25: W -0.59 ± 0.39; D 0.297 ± 0.072; V 1.01 ± 0.52; R 0.337 ± 0.71; S 0.301 ± 0.39; Y -0.882 ± 0.51; F 0.583 ± 0.3; P 0.792 ± 0.57; H -1.85 ± 0.26; G 0.475 ± 0.28; T 0.533 ± 0.11; C 0.493 ± 0.17; K 0.411 ± 0.087; I 0.925 ± 0.46; L 1.16 ± 0.47; N -1.11 ± 0.26; Q 0.196 ± 0.14
P39: M -0.22 ± 0.14; V -1.34 ± 0.49; H 0.277 ± 0.43; L -0.0747 ± 0.48; T 1.25 ± 0.41; Y -1.28 ± 0.23; K -0.314 ± 0.072; R 0.0519 ± 0.47; F 1.34 ± 0.45; W 0.403 ± 0.26; A -0.568 ± 0.77; E 0.999 ± 0.066; Q 0.348 ± 0.4; G -0.241 ± 0.19; S 0.402 ± 1.2
E40: A -0.436 ± 0.32; C -1.11 ± 0.58; D 0.418 ± 0.94
H35: R -0.213 ± 0.43; D -0.476 ± 0.17; E -0.848 ± 0.6; A 0.00595 ± 0.49; C -0.102 ± 0.14; T -0.0166 ± 0.64; V 0.15 ± 0.43; W 0.553 ± 0.31; P 0.148 ± 0.28; Y 0.805 ± 0.27; I 0.107 ± 0.2; S 0.352 ± 0.36; G 0.0779 ± 0.72; Q -0.305 ± 0.25; N 0.76 ± 0.11; F 0.0268 ± 0.2; M -0.719 ± 0.084; K -0.196 ± 0.2; L -0.231 ± 0.32
A21: G 0.0519 ± 0.54; R 0.00134 ± 0.6; S 0.0464 ± 0.33; Q -0.205 ± 0.34; Y 0.166 ± 0.29; V 0.278 ± 0.23; P 0.125 ± 0.7; T -0.00846 ± 0.33; I -0.0753 ± 0.15; M 0.432 ± 0.19; N 0.54 ± 0.18; L -0.19 ± 0.3; H 0.216 ± 0.22; W -0.574 ± 0.14
D23: Q -0.673 ± 0.46; S 0.041 ± 0.23; V -0.286 ± 0.3; E 1.02 ± 0.71; R -0.0795 ± 0.48; Y -0.199 ± 0.28; P -0.613 ± 0.43; M 0.267 ± 0.36; W -1 ± 0.21; H 1.33 ± 0.035; L -0.372 ± 0.55; C -0.0222 ± 0.1; I 0.125 ± 0.62; G 0.031 ± 0.52; K -0.339 ± 0.073; A -0.24 ± 0.37; N -0.303 ± 1.1; F 0.3 ± 0.21; T -0.174 ± 0.085
V22: T -0.0112 ± 0.23; A 0.0736 ± 0.4; R 0.528 ± 0.83; P -0.118 ± 0.69; S -0.103 ± 0.51; D -0.245 ± 0.35; W -0.0929 ± 0.089; G -0.0564 ± 0.39; K -1.05 ± 0.071; L 0.487 ± 0.64; I 1.57 ± 0.55; F -0.0603 ± 0.13; H 0.157 ± 0.049; C -0.0794 ± 0.063; M -0.505 ± 0.17; Y -0.0365 ± 0.39; N -0.13 ± 0.44; E -1.03 ± 0.95
D34: L 0.437 ± 0.75; N 0.331 ± 0.084; W -0.393 ± 0.11; V 0.0819 ± 0.32; F 0.247 ± 0.14; S -0.594 ± 0.38; H 1.62 ± 0.13; I -0.247 ± 0.39; M -1.08 ± 0.3; C -0.617 ± 0.33; G 0.43 ± 0.24; Q -0.011 ± 0.19; P 0.782 ± 0.41; R -0.24 ± 0.92; E -2.11 ± 1.8; T -1.22 ± 0.19; Y -0.0055 ± 0.37; A -0.1 ± 0.32
V38: P -0.205 ± 0.17; Y 0.622 ± 0.26; W -0.576 ± 0.14; G -0.618 ± 0.43; Q -0.0109 ± 0.15; T 0.604 ± 0.24; I 1.55 ± 0.76; K 0.354 ± 0.16; S -0.704 ± 0.47; L 0.157 ± 0.43; M 0.387 ± 0.074; F -0.138 ± 0.2; A -0.245 ± 0.75; C 0.438 ± 0.22; D -0.427 ± 0.2; R 0.941 ± 0.6; N -0.701 ± 0.037
A31: G 0.0886 ± 0.44; N -0.416 ± 0.14; I 0.231 ± 0.82; H -0.698 ± 0.13; T -0.678 ± 1.2; R -0.0467 ± 0.41; C -0.0426 ± 0.23; F -0.218 ± 0.19; W -0.0372 ± 0.065; Q 0.778 ± 0.11; P -0.0989 ± 0.14; D 0.894 ± 0.32; V -0.00796 ± 0.32; S 0.0612 ± 0.88; Y 1.22 ± 0.37; L 0.635 ± 0.32
D36: L -0.0069 ± 0.61; W 0.641 ± 0.048; F -0.636 ± 0.15; R 0.583 ± 0.84; T -0.367 ± 0.13; M -0.672 ± 0.13; Q -0.178 ± 0.26; A 0.22 ± 0.32; K 0.212 ± 0.12; G 0.788 ± 0.32; C -0.525 ± 0.023; H -1.75 ± 0.66; V -0.422 ± 0.26; N 1.07 ± 0.59; Y 0.501 ± 0.13; I 0.0675 ± 0.45; E 1.34 ± 0.57; S 0.294 ± 0.28; P 0.171 ± 0.53
A33: L 0.173 ± 0.67; Y 0.238 ± 0.87; R -0.705 ± 0.25; T 0.426 ± 0.27; F 0.348 ± 0.42; S 0.0699 ± 0.49; C 0.846 ± 0.16; W 0.679 ± 0.29; G 0.554 ± 0.5; K -0.895 ± 0.42; N 1.58 ± 0.065; P -0.0164 ± 0.67; D -1.07 ± 0.73; I -1.54 ± 0.91; E 0.898 ± 0.21; V 1.53 ± 0.84
L32: S -0.125 ± 0.35; I -0.434 ± 1.1; N -0.605 ± 0.18; P -0.841 ± 0.94; Q -0.665 ± 0.32; T -0.512 ± 0.21; V -0.331 ± 0.24; W -1.32 ± 0.41; A -0.972 ± 0.61; C -0.199 ± 0.51; H -0.413 ± 0.21; M -0.0821 ± 0.26; G -0.111 ± 0.79; Y 0.28 ± 0.36; R -0.205 ± 0.63; F -0.313 ± 0.24
P27: I 0.28 ± 0.099; S 0.41 ± 0.23; R 0.196 ± 0.62; K 0.0588 ± 0.14; V -0.229 ± 0.27; H 0.254 ± 0.38; M -0.268 ± 0.094; N 0.263 ± 0.048; G 0.0337 ± 0.67; Q 0.267 ± 0.15; W 0.934 ± 0.087; F -0.037 ± 0.22; D -0.285 ± 0.26; Y -0.654 ± 0.33; L 0.398 ± 0.14; E -0.123 ± 0.26; C -0.00711 ± 0.11; T 0.0492 ± 0.53; A 0.562 ± 0.76
S24: C 0.658 ± 0.088; W -0.0451 ± 0.22; H -0.0302 ± 0.21; Q -0.0656 ± 0.18; K 1.61 ± 0.099; T -0.0952 ± 0.28; I 0.123 ± 0.15; D 0.577 ± 0.078; Y 0.463 ± 0.17; L -0.159 ± 0.4; E 0.661 ± 0.12; A -0.0275 ± 0.75; G 0.358 ± 0.26; P -0.246 ± 0.32; M 1.04 ± 0.34; F 0.0274 ± 0.26; V 0.582 ± 0.35; R 0.239 ± 0.83
H30: N 0.384 ± 0.43; Y 1.23 ± 0.46; T -0.172 ± 0.23; W -0.339 ± 0.39; S 0.156 ± 0.39; Q -0.357 ± 0.12; F 0.0787 ± 0.23; M 0.839 ± 0.14; R 0.24 ± 0.49; P -0.0919 ± 0.43; L 0.0371 ± 0.59; E 0.323 ± 0.48; K 0.682 ± 0.08; V -0.417 ± 0.44; D 0.0821 ± 0.2; C 0.429 ± 0.26; A -0.75 ± 0.63; I -0.51 ± 0.27; G 0.000219 ± 0.62
F26: P 0.00822 ± 0.41; N 0.281 ± 0.066; S 0.0967 ± 0.64; K -0.369 ± 0.25; H -0.678 ± 0.15; I -0.664 ± 0.55; E -0.35 ± 0.31; T 0.422 ± 0.98; Y -0.359 ± 0.21; C -0.0618 ± 0.14; V -0.0518 ± 0.31; R -0.107 ± 0.71; D 0.00972 ± 0.37; L -0.13 ± 0.44; M -1 ± 0.31; A -0.171 ± 0.064; Q -2.95 ± 0.98; G -0.298 ± 0.2; W 1.21 ± 0.12
L29: P -0.138 ± 0.54; W 0.224 ± 0.056; R 0.468 ± 0.39; D -0.402 ± 0.66; Q 0.317 ± 0.23; K 0.34 ± 0.67; C -0.201 ± 0.2; V 0.342 ± 0.35; F -0.401 ± 0.47; S -0.0413 ± 0.26; A -0.0346 ± 0.34; M -0.19 ± 0.15; I 0.187 ± 0.2; N 0.195 ± 0.28; G -0.175 ± 0.35; H -0.121 ± 0.22; T -0.208 ± 0.21; Y -0.0248 ± 0.12
V37: L -0.0654 ± 0.45; M -1.53 ± 0.17; C -0.563 ± 0.26; R 0.122 ± 0.4; A -0.162 ± 0.092; Y 0.262 ± 0.11; W -0.538 ± 0.062; I 0.337 ± 0.18; F 0.178 ± 0.24; E -0.336 ± 0.2; H 0.218 ± 0.17; K 0.536 ± 0.23; S -0.316 ± 0.64; G 0.192 ± 0.36; D 0.512 ± 0.35
